Assay results taken from the RNAGym collection of RNA variant scans (doi:10.7554/elife.90254).

B1: OR4K15 (parent)
chain: GUUAACGGUCAUAGGCCAUGGAAACUAGGAGCACCAUUUCGCUGCCAGUGAAGAAAUGAACAAAGAAAAUCUGGGCCAGGCAGGCAUCAAAAGAAAUAGUCUUGCGCUCAACCAGAAAGUCUGUAAUCAUUUUAAGGGUA

Variants of: B1
Assay: self-cleavage, relative activity (ratio to wild type); higher = more cleavage; in vitro, sequencing; the parent is a self-cleaving ribozyme

Variant	self-cleavage
C42U U127C	0.99
U97C A116U	0.11
A22G U39A	1.39
U38A U130C	1.47
A62U A69G	0.81
A47G U130C	0.33
U120A U132C	1.37
A11G A59U	0.98
A63G A91G	0.98
U70A A89U	1.74
A36G C128A	1.16
U97A A118G	1.01
G73U A110G	0.03
A18G U130C	1.01
U120A U124C	1.04
U72C A89G	0.24
U12A A56G	1.58
A62G U120G	0.84
A51U A82G	0.68
C16G A54G	0.89
U100C U130A	2.16

Variant	self-cleavage
U108A G123U	0.01
A27G U39A	1.42
G48A U49C	1.73
A110G A125C	0.17
U43C A126C	1.95
U12C C105U	0.23
A56G A62U	2.29
A55G U131C	1.63
A66U A67G	0.98
G48A A92G	2.02
A60G A78U	0.35
A36G U127A	1.87
A33U A126U	1.67
A60G A117C	0.3
C35A A116G	0.83
C25G A59G	0.57
C105U U120C	0.05
A13G G80C	0.19
U12C U37G	1.92
U2C U122C	0.25
A47G A82G	0.51

Variant	self-cleavage
C16U U122C	1.91
C88U A129G	1.65
U37C A66C	1.34
G15A A92G	1.65
A96U A111G	0.04
A91G A92U	1.43
A59U A66G	1.31
U37C U43C	2.16
U102C C109A	0.3
U49C U57C	0.57
U43A U87C	1.55
U97A A126U	1.01
A52G G73A	0.11
A63G U139C	1.1
U12G A33G	1.04
U9A A110G	0.22
U120C U127C	0.43
A5G A47G	1.37
A33U U70C	1
U102G A117G	0.37
G41U	1.74

Variant	self-cleavage
A60C C71U	0.04
A111G A117U	0
G58U	1.43
U19C U108A	0.03
U9C A89G	1.45
C71U A95G	0.97
A60C U130C	1.4
A69U A96G	2.35
A52G A89G	1.84
U26C A92G	1.45
U139C A140C	1.42
G48U	1.61
A96C C109U	0.21
U124C U130C	0.57
A66G A95G	1.54
U39A U131C	1.59
A51U U72A	0.45
C88U A94G	1.27
U72C U127A	0.19
A52G A78G	0.28
